# According to IntAct's records for PubMed 23956175:
# B1: Protein disulfide isomerase Creld2 (Mus musculus), Q9CYA0 (parent)
# chain: MHLLLAAAFGLLLLLPPPGAVASRKPTMCQRCRTLVDKFNQGMANTARKNFGGGNTAWEEKTLSKYEFSEIRLLEIMEGLCDSSDFECNQLLEQQEEQLEAWWQTLKKEHPNLFEWFCVHTLKACCLPGTYGPDCQECQGGSERPCSGNGYCSGDGSRQGDGSCQCHTGYKGPLCIDCTDGFFSLQRNETHSICSACDESCKTCSGPSNKDCIQCEVGWARVEDACVDVDECAAETSPCSDGQYCENVNGSYTCEDCDSTCVGCTGKGPANCKECIAGYTKESGQCTDIDECSLEEKACKRKNENCYNVPGSFVCVCPEGFEETEDACVQTAEGKVTEENPTQPPSREDL
# partner: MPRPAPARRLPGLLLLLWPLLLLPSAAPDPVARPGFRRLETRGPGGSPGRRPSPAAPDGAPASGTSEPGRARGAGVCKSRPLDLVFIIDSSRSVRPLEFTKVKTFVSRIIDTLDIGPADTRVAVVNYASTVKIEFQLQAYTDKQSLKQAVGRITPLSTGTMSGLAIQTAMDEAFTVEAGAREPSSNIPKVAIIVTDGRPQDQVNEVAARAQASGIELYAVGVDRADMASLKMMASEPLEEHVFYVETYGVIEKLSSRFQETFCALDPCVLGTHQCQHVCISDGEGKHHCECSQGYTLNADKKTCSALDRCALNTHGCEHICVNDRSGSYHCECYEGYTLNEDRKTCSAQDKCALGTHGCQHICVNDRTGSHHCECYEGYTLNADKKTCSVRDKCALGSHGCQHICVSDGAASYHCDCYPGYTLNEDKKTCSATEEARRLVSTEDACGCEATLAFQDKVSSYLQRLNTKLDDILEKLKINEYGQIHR
# Variants of: B1
# Settings: with matn3_human MATN3, O15232
row,Variant,effect of a mutation on the interaction
1,C32A,causing an interaction
